The source of these data is IntAct's records for PubMed 22164301.

B1: Protein unc-93 homolog B1 (Homo sapiens), Q9H1C4 (parent)
chain: MEAEPPLYPMAGAAGPQGDEDLLGVPDGPEAPLDELVGAYPNYNEEEEERRYYRRKRLGVLKNVLAASAGGMLTYGVYLGLLQMQLILHYDETYREVKYGNMGLPDIDSKMLMGINVTPIAALLYTPVLIRFFGTKWMMFLAVGIYALFVSTNYWERYYTLVPSAVALGMAIVPLWASMGNYITRMAQKYHEYSHYKEQDGQGMKQRPPRGSHAPYLLVFQAIFYSFFHLSFACAQLPMIYFLNHYLYDLNHTLYNVQSCGTNSHGILSGFNKTVLRTLPRSGNLIVVESVLMAVAFLAMLLVLGLCGAAYRPTEEIDLRSVGWGNIFQLPFKHVRDYRLRHLVPFFIYSGFEVLFACTGIALGYGVCSVGLERLAYLLVAYSLGASAASLLGLLGLWLPRPVPLVAGAGVHLLLTFILFFWAPVPRVLQHSWILYVAAALWGVGSALNKTGLSTLLGILYEDKERQDFIFTIYHWWQAVAIFTVYLGSSLHMKAKLAVLLVTLVAAAVSYLRMEQKLRRGVAPRQPRIPRPQHKVRGYRYLEEDNSDESDAEGEHGDGAEEEAPPAGPRPGPEPAGLGRRPCPYEQAQGGDGPEEQ
B2: Protein unc-93 homolog B1 (Homo sapiens), Q9H1C4 (parent)
chain: B1 chain
partner: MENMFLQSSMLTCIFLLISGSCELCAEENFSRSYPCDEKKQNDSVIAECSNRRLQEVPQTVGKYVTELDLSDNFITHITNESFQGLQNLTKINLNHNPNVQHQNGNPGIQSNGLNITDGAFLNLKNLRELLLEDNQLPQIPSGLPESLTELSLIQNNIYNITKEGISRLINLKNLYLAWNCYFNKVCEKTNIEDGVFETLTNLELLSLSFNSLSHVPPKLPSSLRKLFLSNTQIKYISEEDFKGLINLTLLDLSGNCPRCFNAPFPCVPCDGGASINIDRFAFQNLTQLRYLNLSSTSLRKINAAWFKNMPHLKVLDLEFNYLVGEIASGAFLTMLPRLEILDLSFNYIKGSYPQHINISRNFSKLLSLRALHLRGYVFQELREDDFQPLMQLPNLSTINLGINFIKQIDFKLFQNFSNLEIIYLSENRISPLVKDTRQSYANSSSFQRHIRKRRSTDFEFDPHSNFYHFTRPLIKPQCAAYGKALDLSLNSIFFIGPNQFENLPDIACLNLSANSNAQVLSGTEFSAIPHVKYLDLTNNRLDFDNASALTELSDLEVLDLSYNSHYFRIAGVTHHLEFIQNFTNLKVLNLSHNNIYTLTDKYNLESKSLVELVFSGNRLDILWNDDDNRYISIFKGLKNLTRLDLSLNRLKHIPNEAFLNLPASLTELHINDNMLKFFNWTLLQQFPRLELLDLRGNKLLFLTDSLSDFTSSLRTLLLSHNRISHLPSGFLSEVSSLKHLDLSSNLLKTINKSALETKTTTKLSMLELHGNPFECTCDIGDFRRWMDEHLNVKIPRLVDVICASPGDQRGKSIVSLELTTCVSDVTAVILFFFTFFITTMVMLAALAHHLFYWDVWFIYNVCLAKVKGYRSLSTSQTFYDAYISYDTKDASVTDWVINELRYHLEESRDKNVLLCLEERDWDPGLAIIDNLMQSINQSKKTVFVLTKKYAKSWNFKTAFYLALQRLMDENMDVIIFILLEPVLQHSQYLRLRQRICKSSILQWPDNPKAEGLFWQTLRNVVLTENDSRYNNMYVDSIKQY

Variants of B1 are the subject of the first experiment. As to conditions: with tlr3_human TLR3, O15455.
Turning to MEAEPPLYPMAGAAGPQGDEDLLGVPDGPEAPLDELVGAYPNYNEEEEERRYYRRKRLGVLKNVLAASAGGMLTYGVYLGLLQMQLILHYDETYREVKYGNMGLPDIDSKMLMGINVTPIAALLYTPVLIRFFGTKWMMFLAVGIYALFVSTNYWERYYTLVPSAVALGMAIVPLWASMGNYITRMAQKYHEYSHYKEQDGQGMKQRPPRGSHAPYLLVFQAIFYSFFHLSFACAQLPMIYFLNHYLYDLNHTLYNVQSCGTNSHGILSGFNKTVLRTLPRSGNLIVVESVLMAVAFLAMLLVLGLCGAAYRPTEEIDLRSVGWGNIFQLPFKHVRDYRLRHLVPFFIYSGFEVLFACTGIALGYGVCSVGLERLAYLLVAYSLGASAASLLGLLGLWLPRPVPLVAGAGVRLLLTFILFFWAPVPRVLQHSWILYVAAALWGVGSALNKTGLSTLLGILYEDKERQDFIFTIYHWWQAVAIFTVYLGSSLHMKAKLAVLLVTLVAAAVSYLRMEQKLRRGVAPRQPRIPRPQHKVRGYRYLEEDNSDESDAEGEHGDGAEEEAPPAGPRPGPEPAGLGRRPCPYEQAQGGDGPEEQ [H412R], the “effect of a mutation on the interaction” value was “disrupting interaction strength”.

In a further experiment the parent is B2. To be noted: with tlr8_human TLR8, Q9NR97.
As to MEAEPPLYPMAGAAGPQGDEDLLGVPDGPEAPLDELVGAYPNYNEEEEERRYYRRKRLGVLKNVLAASAGGMLTYGVYLGLLQMQLILHYDETYREVKYGNMGLPDIDSKMLMGINVTPIAALLYTPVLIRFFGTKWMMFLAVGIYALFVSTNYWERYYTLVPSAVALGMAIVPLWASMGNYITRMAQKYHEYSHYKEQDGQGMKQRPPRGSHAPYLLVFQAIFYSFFHLSFACAQLPMIYFLNHYLYDLNHTLYNVQSCGTNSHGILSGFNKTVLRTLPRSGNLIVVESVLMAVAFLAMLLVLGLCGAAYRPTEEIDLRSVGWGNIFQLPFKHVRDYRLRHLVPFFIYSGFEVLFACTGIALGYGVCSVGLERLAYLLVAYSLGASAASLLGLLGLWLPRPVPLVAGAGVRLLLTFILFFWAPVPRVLQHSWILYVAAALWGVGSALNKTGLSTLLGILYEDKERQDFIFTIYHWWQAVAIFTVYLGSSLHMKAKLAVLLVTLVAAAVSYLRMEQKLRRGVAPRQPRIPRPQHKVRGYRYLEEDNSDESDAEGEHGDGAEEEAPPAGPRPGPEPAGLGRRPCPYEQAQGGDGPEEQ [H412R], the “effect of a mutation on the interaction” value is on record as “disrupting interaction strength”.
